Non-standard residues stand in square brackets, D forms with d. No end group written: not given here.

Assay [1] concerns the target human serum proteins. Put plainly: cell-based or functional assay.
The target of assay [2] is D36 (D40(A13K/A16K)). Put plainly: RP-HPLC temperature profiling 5-77 C, pH 2, self-association (dimerization/oligomerization) relative to random coil control RC.
For assay [3], the target named is D84 (D33(A1K)). Nature of the assay: RP-HPLC temperature profiling (0.25% B/min gradient), Mix 1, self-association relative to RC.
The target in assay [4] is D84 (D33(A1K)). Put plainly: RP-HPLC temperature profiling (0.25% B/min gradient), Mix 2, self-association relative to RC.
Assay [5] has as its target D84 (D33(A1K)). Put plainly: RP-HPLC temperature profiling (0.25% B/min gradient), Mix 3, self-association relative to RC.
Assay [6] has as its target D84 (D33(A1K)). Put plainly: RP-HPLC temperature profiling (0.25% B/min gradient), Mix 4, self-association relative to RC.

B1: D36 (D40(A13K/A16K)) (peptide)
peptide: [dA][dL][dA][dS][dL][dL][dK][dT][dL][dS][dK][dA][dK][dK][dK][dK][dL][dK][dT][dL][dL][dK][dA][dL][dS][dA]-NH2
modifications: N-terminus assumed
SMILES: CC(C)C[C@@H](NC(=O)[C@@H](C)N)C(=O)N[C@H](C)C(=O)N[C@H](CO)C(=O)N[C@H](CC(C)C)C(=O)N[C@H](CC(C)C)C(=O)N[C@H](CCCCN)C(=O)N[C@@H](C(=O)N[C@H](CC(C)C)C(=O)N[C@H](CO)C(=O)N[C@H](CCCCN)C(=O)N[C@H](C)C(=O)N[C@H](CCCCN)C(=O)N[C@H](CCCCN)C(=O)N[C@H](CCCCN)C(=O)N[C@H](CCCCN)C(=O)N[C@H](CC(C)C)C(=O)N[C@H](CCCCN)C(=O)N[C@@H](C(=O)N[C@H](CC(C)C)C(=O)N[C@H](CC(C)C)C(=O)N[C@H](CCCCN)C(=O)N[C@H](C)C(=O)N[C@H](CC(C)C)C(=O)N[C@H](CO)C(=O)N[C@H](C)C(N)=O)[C@H](C)O)[C@H](C)O
Molecule B1 had an MIC against A. baumannii strain 649 in 25% human serum (no serum: 0.4) in assay [1] of 0.7 µM. For the same molecule, the PA (self-association parameter) in assay [2] is 5.6 min.

B2: D84 (D33(A1K)) (peptide)
peptide: Ac-KLKSLLKTLSKAKAAKLKTLLKALSK-NH2
modifications: not fully specified; also: D-enantiomeric residues, extent not given here
Turning to B2, the PA (self-association parameter) in assay [3], in assay [4], in assay [5] and in assay [6] was 6.8 min each time.

For the origin of these results see patent publication US20200129634A1.
